Test results from the RNAGym collection of RNA variant scans (doi:10.7554/elife.90254).

B1: LINE1-full (parent)
chain: UACGUAGGUGGUUUUCCCCUGAUAGUGCUAAGGGGGCCUGGAAGUUUGGACUGGGCAGAGCUCAACACAGCGUGGCAAAGUGGCUGUGGCUAGACUGCCUCUCUGGAUUCCUCGUCACUCAGCAGGGCAUCUCUGAGAGAAAUGCC

Variants of: B1
Test: self-cleavage, relative activity (ratio to wild type); higher = more cleavage; in vitro, sequencing; the parent is a self-cleaving ribozyme

Variant | self-cleavage
U14C G21A | 1.39
U15C G88A | 0.06
U14C A138C | 1.56
U14C A138U | 0.98
U14C A138G | 1.23
U15C G126A | 1.41
U14C U62C | 0.09
U14C U62A | 0.1
U15C A107U | 1.2
U14G A141G | 0.89
U15C G34A | 0.78
U15C G34U | 1.65
U15C C103U | 1.53
U14C A50G | 1.08
U14C G105C | 1.84
U14C C66U | 0.03
U15C C84G | 0.21
U14C U96C | 0.18
U15A A124U | 0.85
U15A A124G | 0.76
U15C C146G | 1.45
U14C U115A | 1.45
U15A U73C | 1.06
U14A U85C | 0.13

Variant | self-cleavage
U15A A107U | 1.06
U15A U132A | 0.45
U15A A64G | 0.08
U15A A64U | 0.29
U14C U119C | 1.29
U14A G54A | 0.4
U15C A141G | 1.51
U14G U52A | 1.08
U14A G48A | 1.09
U14C G32A | 0.99
U15C U26C | 1.33
U15A C123G | 0.92
U14C C28U | 0.8
U14C C28A | 0.74
U14C U29G | 0.26
U14C U73G | 1.05
U14C G82A | 1.35
U14C U39A | 1.12
U14C U39C | 1
U15C G48A | 1.41
U14C C90A | 0
U14C U20G | 0.9
U14C U20A | 0.89
U14C C63A | 0.06

Variant | self-cleavage
U14C G88U | 0.06
U14C C76A | 1.31
U15A U109A | 0.47
U15A U109C | 0.86
U14A U108G | 1.09
U14A U108C | 0.87
U15C C111U | 1.47
U15A C110A | 1.16
U15A A79U | 1.09
U14C A124G | 1.09
U14C A124U | 1.25
U14C U132C | 1.43
U14C U132A | 0.87
U14C G49U | 1.21
U14C A78U | 1.44
U15A U91A | 0.77
U15A U134A | 0.87
U15C A65C | 0.09
U15C A65G | 0.1
U15C G80A | 1.82
U14G A67U | 0.39
U14C G137A | 0.82
U14C U47A | 1.17
U14C A107G | 1.22

Variant | self-cleavage
U14C A107U | 1.2
U14A U26C | 1.95
U15C G106C | 1.03
U15C G106A | 1.26
U15A A77C | 0.7
U15C A42G | 1.43
U15C A42U | 1.38
U14C A141G | 1.03
U15A U87A | 0.08
U15A U87C | 0.28
U15C A30G | 1.14
U15A U23C | 1.17
U15A U23A | 0.76
U14C C37U | 0.95
U14C C37G | 0.56
U15C A129U | 1.06
U15A G127U | 1.87
U15A U81C | 1.14
U15A U81A | 1.56
U14C U108A | 0.98
U15A A59G | 0.08
U15C G21A | 1.11
U15A U46A | 0.71
U15A U46C | 0.76

Variant | self-cleavage
U14A U100C | 0.78
U14A U100A | 0.28
U14A G55U | 0.28
U15A U20C | 1.31
U14C A140U | 1.22
U14C A140G | 0.87
U14C G125A | 1.46
U14C A30G | 1.08
U14C A30U | 1.11
U14C U134C | 1.34
U14C U134A | 0.84
U14A U52A | 1.09
U14C U45G | 1.34
U14C U112G | 1.75
U14C G93U | 0.06
U14C G48U | 1.15
U14A U96G | 0
U14A C111A | 0.72
U14C G35C | 1.46
U14C G35A | 1.22
U14C G35U | 1.02
U15A A141U | 1.07
U15A A141G | 1.35
U14G U132C | 1.13

Variant | self-cleavage
U14C C95U | 0.21
U15C C116U | 0.62
U15C G86A | 0.06
U15A A142C | 1.71
U15C G97A | 0.06
U14A G144A | 1.12
U14C A67C | 0.13
U14C A67U | 0
U15C A140G | 1.59
U15C A140C | 1.12
U14G U39C | 1.25
U15A U143C | 1.26
U15C A92G | 0.21
U14C G72A | 1.23
U14G A69G | 0.42
U15A G125U | 0.89
U15C C63U | 0.43
U15C G40A | 0.3
U14C U130A | 1.47
U14C U130C | 1.5
U15C G32U | 1.15
U14C G36C | 1.41
U14A U102C | 1.19
U15A U39A | 0.85

Variant | self-cleavage
U14C G70A | 0.26
U14C G27A | 1.15
U15C C90A | 0.02
U15A A22G | 0.79
U15A A22C | 0.85
U15A A22U | 1.16
U14C C98U | 0.07
U14C U91A | 0.91
U14A U119C | 0.85
U15C C68U | 0.19
U15C G135U | 1.21
U14C U102A | 1.67
U15A G44A | 1.32
U14A U23A | 0.72
U14A G34A | 0.78
U14A G34C | 1.98
U15A C111U | 1.37
U15C A121U | 1.79
U15C A121G | 1.34
U15A U26A | 0.5
U14C A77U | 1.19
U14A U62C | 0.1
U14A U62G | 0.53
